Consider one protein from paper PMC6823436, “Phase separation of Polo-like kinase 4 by autoactivation and clustering drives centriole biogenesis” (Nature Communications, 2019).

This data set deals with the molecule itself. The experiment in a line: SEC; Superdex 75 Increase 10/300 GL; 20 mM Tris-HCl pH 7.5, 500 mM NaCl, 5% glycerol, 0.5 mM TCEP; 0.5 mL/min; BSA run for comparison; dimeric state in solution.

B1: CPB CP (581–808), cryptic polo-box of Plk4 with the CP mutations (domain or fragment, human, UniProt O00444 581-808, looked up)
chain: GYQNRTLRSITSPLVAHRLKPIRQKTKKAVVSILDSEEVCVELVKEYASQEYVKEVLQISSDGNTITIYYPNGGRGFPLADRPPSPTDNISRYSFDNLPEKYWRKYQYASRFVQLVREKEPKIEYFDRYAKCILMENSPGADFEVWFYDGVKIHKTEDFIQVIEKTGKSYTLKSESEVNSLKEEIKMYMDHANEGHRICLALESIISEEERKTRSAPFFPIIIGRKPG
notes: PDB 6N46 is the His6-tagged form of the same limits; PDB 4N9J is the wild-type apo-CPB; also called CBP CP; source: E. coli Rosetta, purified (HisTrap, SEC, TEV cleavage, HisTrap and MBPTrap, SEC)
On to B1, for which the binding result is “binds”.
